# Test results taken from article PMC9122588, “Control of bacterial immune signaling by a WYL domain transcription factor”.
# T1: Pa CapW (Pseudomonas aeruginosa PA17, UniProt P0DX74 1-299)
# T1 sequence: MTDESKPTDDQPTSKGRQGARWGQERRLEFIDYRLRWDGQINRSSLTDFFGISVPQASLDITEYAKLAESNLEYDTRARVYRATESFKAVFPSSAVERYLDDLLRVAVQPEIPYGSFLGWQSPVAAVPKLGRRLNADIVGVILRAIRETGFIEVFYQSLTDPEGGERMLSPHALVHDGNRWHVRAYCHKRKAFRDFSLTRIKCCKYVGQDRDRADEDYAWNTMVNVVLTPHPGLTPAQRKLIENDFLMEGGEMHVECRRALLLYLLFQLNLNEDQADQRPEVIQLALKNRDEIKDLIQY
# Target: T1, Pa CapW
# Assay: fluorescence polarization; 5 mM MgCl2; FP: 25 mM Tris pH 8.5, 50 mM NaCl, 5% glycerol, 5 mM MgCl2, 1 mM DTT, 0.01% NP-40 substitute, 50 nM DNA, 10 min, RT; EMSA: 50 mM Tris-HCl pH 8.5, 50 mM NaCl, 5
# Details: protein: recombinant; tags: N-terminal His6-TEV, cleaved; chain copies: 2; label: 5'-6-FAM on one strand; blunt
binder,measurement,value
Probe #4 (dsDNA) DNA 1: CTAAAAACTATGCGTATAGTAATAATACGC DNA 2: GCGTATTATTACTATACGCATAGTTTTTAG,Kd,1000 ± 100 nM
